These results are taken from paper PMC6770890.

The data set concerns the target T1, H-NS (Salmonella enterica serovar Typhimurium ATCC 14028s) (UniProt A0A0F6B244).
T1 sequence: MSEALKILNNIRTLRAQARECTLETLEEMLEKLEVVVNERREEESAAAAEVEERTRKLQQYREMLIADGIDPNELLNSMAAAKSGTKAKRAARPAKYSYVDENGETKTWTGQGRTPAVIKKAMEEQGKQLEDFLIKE
Description: EMSA. The note with it: 20 mM Tris-HCl, 1 mM EDTA, 100 ug/mL BSA, 1 mM DTT, 10% glycerol, 80 mM NaCl, 25 C, 30 min; 50 ng DNA in 20 uL, protein 0-9.76 uM; pH 7.5 or 5.5 in Fig. 5B …. Background: In EMSA bound probe runs differently from free probe, usually more slowly.

For the sequence “CAAAGACGCCGAGAATGTGAAAAAATTCGTTCAGGCTTATCAGTCTGATGAAGTGTACGAAGCCGCAAATAAAGTTTTTAATGGCGGCGCGGTGAAAGGCTGGTAAGTTTTAGGCTGATTCCACAATCTGTAATATTATTCAGGACGGGCTATTGCCCGTCTTGTCATTTATGCAAGCTCCTGATTCAATATCTGGC (double strand) [yaeB promoter (PyaeB)]”, the binding entry is “binds”.
Regarding “GCCGTGCTGTTCACTCATCCGCGCCACCAGCCGGTCAAGGTGCAGACGGGCAATCACGCCACGCGACGTTTCGTCCAGCGGCAGGTAAGGGATCACCGTCACGCGGCCCAGAAATGCCGCCGGGAAATGCTTGCGCAATTCCGGCATTAGCGCCTCTTTAAGCCCCGTAGCATCGGGCATTAAGGCCGGATCTTCACACATCTGGCTGATGAGGTCGGAACCCACGTTGGTGGTGAGTAATAGCGTGGTG (double strand) [STM0272 fragment]”, the binding result is reported as “no binding”.
